These results are taken from the supplement of paper PMC7877785.

± gives the uncertainty stated by the source.

This data set is described as follows: self-splicing fitness, log relative to wild type (ln ratio); higher = more splicing; Tetrahymena group I intron in knt gene, E. coli kanamycin selection, DiMSum; sequences stand for … in CUCUCU…GGAGGGAAAAGUUAUCAGGCAUGCACCUGGUAGCUAGUCUUUAAACCAAUAGAUUGCAUCGGUUUAAAAGGCAAGACCGUCAAAUUGCGGGAAAGGGGUCAACAGCCGUUCAGUACCAAGUCUCAGGGGAAACUUUGAGAUGGCCUUGCAAAGGGUAUGGUAAUAAGCUGACGGACAUGGUCCUAACCACGCAGCCAAGUCCUAAGUCAACAGAUCUUCUGUUGAUAUGGAUGCAGUUCACAGACUAAAUGUCGGUCGGGGAAGAUGUAUUCUUCUCAUAAGAUAUAGUCGGACCUCUCCUUAAUGGGAGCUAGCGGAUGAAGUGAUGCAACACUGGAGCCGCUGGGAACUAAUUUGUAUGCGAAAGUAUAUUGAUUAGUUUUGGAGUACUCGUGGUCG
The procedure, abridged:
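Six replicate transformations of E. coli BL21(DE3) with a pET-22b(+) library were grown overnight at 37°C or 30°C. The library randomised all eight P1ex-region intron nucleotides, the intron lying in the knt kanamycin-resistance gene, and plates were LB agar with or without 25 μg/mL kanamycin plus 100 μg/mL carbenicillin, 50 μM IPTG and 0.2% rhamnose. Pooled colonies were amplicon-sequenced on an Illumina HiSeq 2500, and fitness is the DiMSum error-weighted combination of wild-type-normalised replicate fold changes, kanamycin versus none.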

For the sequence GGAAAGCAAUAUUACGUUCU, the “self-splicing fitness (ln)” value reads like this: (30 °C) -3.94 ± 0.21; (37 °C) -3.07 ± 0.23.

As for GAGAAGCAAUAUUACGGGCC, the “self-splicing fitness (ln)” value runs as follows: (30 °C) -2.03 ± 0.22; (37 °C) -2.56 ± 0.41.

Take UCGAAGCAAUAUUACGCCUU: the “self-splicing fitness (ln)” value (30 °C) is -3.4 ± 0.25 and the “self-splicing fitness (ln)” value (37 °C) was -3.23 ± 0.26.

Take GACGAGCAAUAUUACGCGUU: the “self-splicing fitness (ln)” value is -3.74 ± 0.23 (30 °C) and -2.88 ± 0.25 (37 °C).

Turning to CGCUAGCAAUAUUACGGCCC, the “self-splicing fitness (ln)” value by setting is: (30 °C) -1.74 ± 0.19; (37 °C) 0.036 ± 0.24.

Take UCCUAGCAAUAUUACGCUGC: under “37 °C”, the “self-splicing fitness (ln)” value is -2.02 ± 0.29.

On to UUGGAGCAAUAUUACGGCAG, for which the “self-splicing fitness (ln)” value runs as follows: (30 °C) -1.6 ± 0.17; (37 °C) -1.01 ± 0.22.

On to CAUUAGCAAUAUUACGGGAG, for which the “self-splicing fitness (ln)” value by setting is: (30 °C) -1.46 ± 0.12; (37 °C) -1.09 ± 0.11.

As for ACCAAGCAAUAUUACGUAAA, the “self-splicing fitness (ln)” value reads like this: (30 °C) -2.62 ± 0.13; (37 °C) -1.38 ± 0.16.

Turning to UCCCAGCAAUAUUACGACCG, the “self-splicing fitness (ln)” value reads like this: (30 °C) -3.22 ± 0.3; (37 °C) -3.01 ± 0.31.

On to ACAUAGCAAUAUUACGUCCA, for which the “self-splicing fitness (ln)” value was -1.24 ± 0.14 (30 °C) and -0.641 ± 0.17 (37 °C).

Regarding UUUUAGCAAUAUUACGCCCG, where the note is “30 °C”, the “self-splicing fitness (ln)” value was -0.629 ± 0.33.

Regarding UAUUAGCAAUAUUACGCACA, the “self-splicing fitness (ln)” value was -0.485 ± 0.13 (30 °C) and -0.0783 ± 0.23 (37 °C).

For UCGGAGCAAUAUUACGUAAU, under “37 °C”, the “self-splicing fitness (ln)” value was -1.86 ± 0.33.

Consider AAGGAGCAAUAUUACGGACU, for which the “self-splicing fitness (ln)” value was -1.99 ± 0.16 (30 °C) and -0.907 ± 0.19 (37 °C).

As for CACAAGCAAUAUUACGGCUA, the “self-splicing fitness (ln)” value is -2.02 ± 0.12 (30 °C) and -1.26 ± 0.11 (37 °C).

As to ACUUAGCAAUAUUACGCCGU, the “self-splicing fitness (ln)” value (30 °C) was -2.28 ± 0.24 and the “self-splicing fitness (ln)” value (37 °C) was -1.11 ± 0.23.

Turning to UCUCAGCAAUAUUACGCUAU, the “self-splicing fitness (ln)” value is, setting by setting: (30 °C) -3.62 ± 0.43; (37 °C) -2.37 ± 0.23.

For AAAUAGCAAUAUUACGACUC, the “self-splicing fitness (ln)” value reads like this: (30 °C) -0.664 ± 0.17; (37 °C) -0.335 ± 0.21.

Take UCAUAGCAAUAUUACGGGGG: the “self-splicing fitness (ln)” value is -2.69 ± 0.19 (30 °C) and -2.27 ± 0.21 (37 °C).

As for CGCCAGCAAUAUUACGGUCC, the “self-splicing fitness (ln)” value was -0.387 ± 0.13 (30 °C) and -0.161 ± 0.16 (37 °C).

For UGUGAGCAAUAUUACGCCAG, the “self-splicing fitness (ln)” value is, setting by setting: (30 °C) -2.23 ± 0.32; (37 °C) -2.01 ± 0.34.

Regarding ACGUAGCAAUAUUACGCACA, the “self-splicing fitness (ln)” value is, setting by setting: (30 °C) -0.463 ± 0.12; (37 °C) -0.501 ± 0.13.

Consider ACUAAGCAAUAUUACGGAUG, for which the “self-splicing fitness (ln)” value reads like this: (30 °C) -2.49 ± 0.12; (37 °C) -1.42 ± 0.13.

Consider GAUAAGCAAUAUUACGGCCC, for which the “self-splicing fitness (ln)” value is, setting by setting: (30 °C) -0.576 ± 0.19; (37 °C) -0.0157 ± 0.28.

For AUUCAGCAAUAUUACGGCCC, the “self-splicing fitness (ln)” value (30 °C) was -0.851 ± 0.16 and the “self-splicing fitness (ln)” value (37 °C) is -0.422 ± 0.21.

With GCAGAGCAAUAUUACGAACU, the “self-splicing fitness (ln)” value (30 °C) is -0.968 ± 0.14 and the “self-splicing fitness (ln)” value (37 °C) was -1.1 ± 0.19.

As for CAUGAGCAAUAUUACGACAA, the “self-splicing fitness (ln)” value (37 °C) was -1.36 ± 0.33.

For the sequence GGAUAGCAAUAUUACGCUCA, the “self-splicing fitness (ln)” value (30 °C) came out at 0.156 ± 0.15 and the “self-splicing fitness (ln)” value (37 °C) was -0.278 ± 0.15.

Turning to AUUAAGCAAUAUUACGAUAA, the “self-splicing fitness (ln)” value was -1.48 ± 0.12 (30 °C) and -0.391 ± 0.14 (37 °C).

As for CCUGAGCAAUAUUACGACAU, the “self-splicing fitness (ln)” value (30 °C) was -3.785 ± 0.027 and the “self-splicing fitness (ln)” value (37 °C) is -2.87 ± 0.042.

In the case of UACCAGCAAUAUUACGUAUU, the “self-splicing fitness (ln)” value runs as follows: (30 °C) -2.16 ± 0.1; (37 °C) -2.6 ± 0.18.

For GCUUAGCAAUAUUACGCGGU, the “self-splicing fitness (ln)” value was -3.52 ± 0.2 (30 °C) and -3.42 ± 0.28 (37 °C).

On to UAGUAGCAAUAUUACGUGAA, for which the “self-splicing fitness (ln)” value (30 °C) was -3.8 ± 0.35 and the “self-splicing fitness (ln)” value (37 °C) is -1.07 ± 0.18.

Regarding GCCCAGCAAUAUUACGCGCU, the “self-splicing fitness (ln)” value was -3.29 ± 0.18 (30 °C) and -2.41 ± 0.2 (37 °C).

Regarding CCCUAGCAAUAUUACGUCGC, the “self-splicing fitness (ln)” value is, setting by setting: (30 °C) -3.12 ± 0.21; (37 °C) -2.64 ± 0.25.

In the case of ACCAAGCAAUAUUACGGCGC, the “self-splicing fitness (ln)” value by setting is: (30 °C) 0.119 ± 0.092; (37 °C) -0.413 ± 0.11.

Turning to GAUAAGCAAUAUUACGAUCG, the “self-splicing fitness (ln)” value (30 °C) is -0.76 ± 0.12 and the “self-splicing fitness (ln)” value (37 °C) was -0.691 ± 0.14.
